Assay results taken from the DeepSol protein solubility set.

assay: soluble on expression in E. coli; label from the status in PepcDB or PDB records

Sequence	soluble on expression in E. coli
MQLRKMQTVKKEQASLDASSNVDKMMVLNSALTEVSEDSTTGEELLLSEGSVGKNKSSACRRKREFIPDEKKDAMYWEKRRKNNEAAKRSREKRRLNDLVLENKLIALGEENATLKAELLSLKLKFGLISSTAYAQEIQKLSNSTAVYFQDYQTSKSNVSSFVDEHEPSMVSSSCISVIKHSPQSSLSDVSEVSSVEHTQESSVQGSCRSPENKFQIIKQEPMELESYTREPRDDRGSYTASIYQNYMGNSFSGYSHSPPLLQVNRSSSNSPRTSETDDGVVGKSSDGEDEQQVPKGPIHSPVELKHVHATVVKVPEVNSSALPHKLRIKAKAMQIKVEAFDNEFEATQKLSSPIDMTSKRHFELEKHSAPSMVHSSLTPFSVQVTNIQDWSLKSEHWHQKELSGKTQNSFKTGVVEMKDSGYKVSDPENLYLKQGIANLSAEVVSLKRLIATQPISASDSG	soluble
MGSDKIHHHHHHMTSFISVYLKIKYYICIYKGNLLVKSILLESSCVILIKYSAQYPNLSNSMIKMNKTISDVDFDDEQEIKLPLSNRQSIAILLGAGFSAPKGYPIGNDINKKIQNFDDSNIDFSPSGMLAISKDGHKPLFQIEGVRNIHQKYFIFCKRLINEYTKAHSNQFDYEQFYDFIKSDEAKDNRYRLLCQDLINKSDDYDNYLFNVVHIYNQMVLYLLKDKEGKSYYDGEPFKVNCADAYNEFLLYLSQQSKECIINIHTLNHDLLIESFNQTSNINGNISDGFDEYGSEYYGILEHDHRNYNCRLERYTGRYNTPIRLYKLHGSIDYVPFYRRDKNGFMKPEKYVKIKWGIGASNIIKGRKSKYGYDASPFEYHADFLTGTTSKIKRYDETLLFKKLFKKFRNNLSKANSLIIIGYGCKDKGINEMIKDNFDYKNKPSFIIDKYAGASVETFAQKINAKIIKESIERLDKTWFV	not soluble
PRLWEGQDVLARWTDGLLYLGTIKKVDSAREVCLVQFEDDSQFLVLWKDISPAAL	soluble
MEIIFYHPTFNAAWWVNALEKALPHARVREWKVGDNNPADYALVWQPPVEMLAGRRLKAVFVLGAGVDAILSKLNAHPEMLDASIPLFRLEDTGMGLQMQEYAVSQVLHWFRRFDDYQALKNQALWKPLPEYTREEFSVGIMGAGVLGAKVAESLQAWGFPLRCWSRSRKSWPGVESYVGREELRAFLNQTRVLINLLPNTAQTVGIINSELLDQLPDGAYVLNLARGVHVQEADLLAALDSGKLKGAMLDVFSQEPLPQESPLWRHPRVAMTPHIAAVTRPAEAIDYISRTITQLEKGEPVTGQVDRARGY	not soluble
MATAEVLNIGKKLYEGKTKEVYELLDSPGKVLLQSKDQITAGNAARKNHLEGKAAISNKITSCIFQLLQEAGIKTAFTRKCGETAFIAPQCEMIPIEWVCRRIATGSFLKRNPGVKEGYKFYPPKVELFFKDDANNDPQWSEEQLIAAKFCFAGLLIGQTEVDIMSHATQAIFEILEKSWLPQNCTLVDMKIEFGVDVTTKEIVLADVIDNDSWRLWPSGDRSQQKDKQSYRDLKEVTPEGLQMVKKNFEWVAERVELLLKSESQCRVVVLMGSTSDLGHCEKIKKACGNFGIPCELRVTSAHKGPDETLRIKAEYEGDGIPTVFVAVAGRSNGLGPVMSGNTAYPVISCPPLTPDWGVQDVWSSLRLPSGLGCSTVLSPEGSAQFAAQIFGLSNHLVWSKLRASILNTWISLKQADKKIRECNL	soluble
QMSLEGTEKASWLGEQPQFWSKTQVLDWISYQVEKNKYDASAIDFSRCDMDGATLCNCALEELRLVFGPLGDQLHAQLRDLTSSS	soluble
MGSDKIHHHHHHVIRSLWISKTGLDAQQTQMDVIANNLANVSTNGFKRSRAVFEDLLYQTLRQPGAQSSQQTQLPSGLQLGTGVRPVATEHIFTQGNLQQTGNSKDVAIQGQGFFQVLRPDGSTAYTRDGSFQTDFEGQLVTSSGYHVQPAITIPPNAQSITVGRDGIVSVTTQDSTTPVQVGNLQLATFINPAGLQSVGENLYVETASSGTPNVTNPGTDGAGLLNQGYVETSNVNVVEELVNMIQTQRAYEINSKSVQTSDQMLQRLTQL	not soluble
SLGKKIETHLEDMVAQANAQLKLTAPESNLEVSYQNYHRGVFSSQLQLLVKPIAGKENPWIKSGQSVIFNESVDHGPFPLAQLKKLNLIPSMASIQTTLVNNEVSKPLFDMAKGETPFEINSRIGYSGDSSSDISLKPLNYEQKDEKVAFSGGEFQLNADRDGKAISLSGEAQSGRIDAVNEYNQKVQLTFNNLKTDGSSTLASFGERVGNQKLSLEKMTISVEGKELALLEGMEISGKSDLVNDGKTINSQLDYSLNSLKVQNQDLGSGKLTLKVGQIDGEAWHQFSQQYNAQTQALLAQPEIANNPELYQEKVTEAFFSALPLMLKGDPVITIAPLSWKNSQGESALNLSLFLKDPATTKEAPQTLAQEVDRSVKSLDAKLTIPVDMATEFMTQVAKLEGYQEDQAKKLAKQQVEGASAMGQMFRLTTLQDNTITTSLQYANGQITLNGQKMSLEDFVGMFAMPALNVPAVPAIPQQ	soluble
RPLTGLVMTGGGARAAYQVGALSAIMAILDPKARPGYPNPFPIICGTSAGAVNAAALACRADRPHLAVRRMRRLWASLETGMVYRADAPGLIRTGVRWLGLLSLGWMYAGLTRKRPQSLLDSSPLADLLGRVMDFDRMRHNLARGKLSALAITASGYTSGEHLTFYQSDRPIDPWHRFLRRAVPSAIGIDHIMASSAIPFVFPARPVRVHGQVEWCGDGSMRQLAPISPAIHLGATRVLVIGTGFHDDTHPEKREEDPPYPSLAQVGGHALSSIFLDGLSMDVERLERTNFLLSRGGQEAEPEFALRRVDVLALTPSQSLDQLALEHLDDMPSEARTLFRV	not soluble
MAHHHHHHMMRIPPLVVCGPSGVGKGTLIKRLLGEFPSLFRFSISCTTRKKREKEMDGVDYYFVDKEDFEQKIKEEQFLEYDNYANNFYGTLKSEYDIAAGENKICLLEMNINGVKQLKESKHIEDGIYIFVKPPSIEILLKRLKNRNTENPEEIKKRMQELTREMDEADKVGFNYIIVNDDLARTYGELRKYLLGSYPQLGGA	soluble
MKKIGIIGGGQLGKMMTLEAKKMGFYVIVLDPTPRSPAGQVADEQIVAGFFDSERIEDLVKGSDVTTYDLEHIDVQTLKKLYNEGYKIHPSPYTLEIIQDKFVQKEFLKKNGIPVPEYKLVKDLESDVREFGFPVVQKARKGGYDGRGVFIIKNEKDLENAIKGETYLEEFVEIEKELAVMVARNEKGEIACYPVVEMYFDEDANICDTVIAPARIEEKYSKIAREIATSVVEALEGVGIFGIEMFLTKQGEILVNEIAPRPHNSGHYTIEACVTSQFEQHIRAIMNLPLGSTELLIPAVMVNLLGEEGYYGKPALIGLEEALAIEGLSLHFYGKKETRPYRKMGHFTVVDRDVERALEKALRAKKILKVVSEEGAMCQG	soluble
MTTDFTPWPEALAAQYRQLGYWQDKTLLDYLQQSAERTPNALALVGDNQQWRYQAMLERIEQLAAGFTELGLGCGDNVVLQLGNVAEFYLCFFALLRQGIRPILALPAHRLAEIRYFCQHSQAKAYLIDGAQRPFDYQALAQELLACCPTLQTVIVRGQTRVTDPKFIELASCYSASSCQANADPNQIAFFQLSGGTTGTPKLIPRTHNDYAYSVTASVEICRFDQHTRYLCVLPAAHNFPLSSPGALGVFWAGGCVVLSQDASPQHAFKLIEQHKITVTALVPPLALLWMDHAEKSTYDLSSLHFVQVGGAKFSEAAARRLPKALGCQLQQVFGMAEGLVNYTRLDDSAELIATTQGRPISAHDQLLVVDEQGQPVASGEEGYLLTQGPYTIRGYYRADQHNQRAFNAQGFYITGDKVKLSSEGYVIVTGRAKDQINRGGEKIAAEEVENQLLHHPAVHDAALIAISDEYLGERSCAVIVLKPEQSVNTIQLKRFLHQAGLADYKIPDQIQFIDQLPKTSVGKIDKNALRRRFDTLGLALMS	not soluble
MILEKAREILEEHQLCNHCLGRLFGKLGKGTNEERGRAIRLLLSMETGKEYKEPEKCELCGGVFNNLDKFAELCIKAAEGIEFETFWVGSRFPEEIEKKEEEIWRKFRVVSGEKITKEFNRELGKVIAVRYGKTPVKERPDVVFIVEPFSEKVELQVNPIYVAGRYRKLIRGIPQTPAPGFKESIATIICRAFKKHFHGKCIFKGAGREDVDVRMLGNGRPFVVEIKRPRKRKVNLKDIEEEINQSGKVEVLNLRFITPEEAERILTTRHRKVYEAIVYVKDGITKEEVEKVVKSLKNAEIKQRTPRRVLNSRADLVRVRKVYDVKGELIDDKHFKLRLVTDGGLYIKELISGDRGRTTPSVSEILGKEAWCEILDVLEVLDDVEGDNLEHHHHHH	not soluble
